Experimental data taken from patent US20230287068A1, “KERATIN BD-6, PREPARATION METHOD THEREFOR AND PHARMACEUTICAL COMPOSITION AND USE THEREOF” (INSTITUTE OF MATERIAL MEDICA, CHINESE ACADEMY OF MEDICAL …, priority 2019, published 2023).

What was measured:
[1] = tested on: yeast-induced fever model in rats; test: Yeast-induced fever model in SD rats; format: in vivo; conditions: for Body temperature 2 hours after modeling / Body temperature 4 hours after modeling / Body temperature 6 hours after modeling / Body temperature 8 hours after modeling: 20% yeast s.c., SD rats
Procedure: • Medicines: yeast (OXOID LP0021), aspirin (SIGMA A2093), protein BD-6; • Instruments: electronic balance (SARTORIUS BP121S type), electronic clinical thermometer (CITIZEN CT-513W type). • Experiment grouping: • Normal control group; • Model group: yeast fever model; • Positive control group: Aspirin 300 mg/kg group; • Protein BD-6, 10 mg/kg group, 50 mg/kg group.
Preparation of experimental animals: After the experimental animals adapt to the experimental environment (temperature 22° C.±2° C., relative humidity 50%±2%) for 1 day. Pre-adaptation to measure rectal temperature at 8:00 and 15:00, rats were fasted and water was taken freely 12 h before experiment, and let the animal to empty its feces before measuring the rectal temperature. Apply petroleum jelly to the electronic thermometer probe before each temperature measurement. Insert the rat rectum 2 cm (can be marked at 2 cm to ensure that the depth of each insertion is consistent), and record the body temperature after the reading is stable.
Subcutaneous injection of dry yeast to replicate rat fever model: The body temperature of the rats was measured before modeling. Qualified rats with a body temperature of 36.2-37.3° C. were selected and randomly divided into groups with 8 rats in each group. After oral administration of aspirin and different doses of protein BD-6, 20% yeast suspension (10 ml/kg) was injected subcutaneously immediately, and the normal control group was injected intraperitoneally with an equal volume of normal saline. The body temperatures of the rats were monitored after 2 hours for a total of 8 hours.
According to the body temperature measured at each time point on the day of the experiment, calculate the mean, standard deviation and standard error of the body temperature of each group of rats. The data of each group was compared with TTEST, and P<0.05 was considered as a significant difference.

[2] = tested on: PTZ-induced epilepsy in mice; test: Pentylenetetrazole (PTZ) induced epilepsy in mice; format: in vivo, ICR mice; conditions: for Cases of deaths / Grade IV seizure rate / mortality rate / Cases of Grade IV / Grade III seizure incubation period / Grade IV seizure incubation period: PTZ 65 mg/kg i.p.; for Cases of deaths / Grade IV seizure rate / mortality rate / Cases of Grade IV: 10 mice; for Cases of Grade IV: 15 min observation; for Grade III seizure incubation period / Grade IV seizure incubation period: mean±SEM; for Grade IV seizure incubation period: maximum 900 seconds
Procedure: • Animals: male ICR mice; • Medicines: Pentylenetetrazol (PTZ), Retigabine, Protein BD-6. • Experiment grouping: • Model group; • Retigabine 60 mg/kg group; • Protein BD-6, 50 mg/kg group, 200 mg/kg group;
The drug was administered once in the afternoon the day before modeling, On the day of modeling, PTZ-65 mg/kg (modeling agent) was injected intraperitoneal 1 hour after the test drug was administered intragastrically, and the positive drug can be administered once half an hour before modeling. Continue to observe for 15 minutes after injection of PTZ.
Observation index: ①Seizure situation: the time of seizures from Grade III to Grade VI; ②Death situation
Seizure grade: Refer to Racine grading standard: Grade 0: No response; Grade I: manifested as twitching of facial muscles or the corners of the mouth; Grade II: can nod; Grade III: twitching of one limb; Grade IV: rigidity or body twitching; Grade V: generalized epilepsy (generalized tonic seizures).
Count the cases of seizures and deaths in each group of mice in the experiment; Grade III and IV incubation period. The incubation period of mice that have not attacked to Grade IV is recorded as the maximum of 900 seconds. Chi-square test was used for statistics of the number of cases. Calculate the mean and standard error of the incubation period. Use TTEST to compare the model group with other groups, and P<0.05 is considered as a significant difference.

[3] = tested on: mice cough induced by ammonia water; test: Antitussive test, cough induced by ammonia water in mice; format: in vivo, ICR mice; conditions: for Incubation period (cough): 10% ammonia water 10 seconds; for Incubation period (cough) / Number of coughs: X±SEM; for Number of coughs: within 2 minutes
Procedure: • Animals: male ICR mice; • Drugs and reagents: dextromethorphan hydrobromide, ammonia water, 0.2% CMC-Na, protein BD-6; • Apparatus: Compressed nebulizer (403T type), balance (XS105DU type). • Experiment grouping: • Solvent control group; • Dextromethorphan 15 mg/kg group; • Protein BD-6, 20 mg/kg group, 50 mg/kg group.
Dextromethorphan and different doses of protein BD-6 (administration volume 10 ml/kg) were given orally in groups, and the solvent control group was given the same volume of distilled water. One hour later, mice were put into a sealed box and atomized 10% ammonia water for 10 seconds, and then observed and recorded the incubation period of cough in mice and the number of coughs in 2 minutes.
Record the time point of oral administration, the time point of atomization experiment, the incubation period of mice cough and the number of coughs within 2 minutes, respectively. The incubation period of cough refers to the number of seconds from the start of the atomization of ammonia to the occurrence of cough. The performance of coughing in mice is based on contraction of their abdominal muscles (breast contraction) and opening their mouths at the same time. Calculate the mean and standard error of each group of data, and use TTEST to compare the model group with other groups, and P<0.05 is considered as a significant difference.

[4] = tested on: acetic acid writhing of ICR mice; test: Acetic acid writhing test in ICR mice; format: in vivo; conditions: for Frequency of writhing / Writhing incubation period: 0.6% acetic acid i.p., within 15 minutes
Procedure: • Animals: male ICR mice; • Drugs and reagents: aspirin, physiological saline, glacial acetic acid, protein BD-6. • Experiment grouping: • Model group; • Aspirin 300 mg/kg group; • Protein BD-6, 50 mg/kg group, 200 mg/kg group.
One day after the experimental animals adapt to the environment, Aspirin 300 mg/kg, protein BD-6 50 mg/kg, 200 mg/kg were given orally one hour in advance, and the administration volume was 10 ml/kg; Then, 0.6% acetic acid solution was injected intraperitoneally, and the incubation period (seconds) and frequency of writhing in the animal was observed within 15 minutes.
Calculate the mean and standard error of the data in each group. Compared with the model group by TTEST, P<0.05 was considered as statistically different.

B1: BD-6: recombinant keratin with the amino acid sequence SEQ ID NO:1, expressed in E. coli, about 45 kD; protein of Example 4 (protein, listed as Bos taurus)
chain: MTTTIRHFSSGSIKGSSGLAGGSSRSCRVSGSLGGGSCRLGSAGGLGSGLGGSSYSSCYSFGSGGSYGSGGYVSGGYGGGFGGVDGLLVGGEKATMQNLNDRLASYLDKVRALEEANTELELKIRDWYQKQAPGPAPDYSSYFKTIEDLRNKIHTATVDNANLLLQIDNARLAADDFRTKFETEQALRVSVEADINGLRRVLDELTLARADLEMQIENLKEELAYLRKNHEEEMKALRGQVGGEINVEMDAAPGVDLSRILNEMRDQYEKMAEKNRKDAEDWFFSKTEELNREVATNSELVQSGKSEISELRRTLQALEIELQSQLSMKASLEGSLAETENRYCMQLSQIQGLIGSVEEQLAQLRCEMEQQNQEYKILLDVKTRLEQEIATYRRLLEGEDAHLTQYKTKEPVTTRQVRTIVEEVQDGRVISSREQVHQTSH
B1 was tested, and the “Body temperature 2 hours after modeling” value ([1]; BD-6 10 mg/kg oral) was 37.0±0.1 °C, the “Body temperature 4 hours after modeling” value ([1]; BD-6 10 mg/kg oral) was 37.4±0.1 °C and the “Body temperature 6 hours after modeling” value ([1]; BD-6 10 mg/kg oral) was 37.3±0.09 °C. The “Body temperature 8 hours after modeling” value ([1]; BD-6 10 mg/kg oral) was 37.5±0.1 °C, the “Body temperature 2 hours after modeling” value ([1]; BD-6 50 mg/kg oral) was 37.0±0.2 °C and the “Body temperature 4 hours after modeling” value ([1]; BD-6 50 mg/kg oral) was 37.4±0.1 °C. For the same molecule, the “Body temperature 6 hours after modeling” value ([1]; BD-6 50 mg/kg oral) was 37.4±0.1 °C, the “Body temperature 8 hours after modeling” value ([1]; BD-6 50 mg/kg oral) was 37.3±0.1 °C and the “Effect on increase in body temperature (in words)” value ([1]; BD-6 10 and 50 mg/kg, most time points after modeling, P<0.05 vs model group) was “can inhibit the increase in body temperature of model rats to varying degrees”. The “Incubation period of Grade III epilepsy vs model group (in words)” value ([2]; BD-6 50 mg/kg and 200 mg/kg, PTZ model) was “have statistical differences compared with the model group”, the Cases of deaths ([2]; BD-6 50 mg/kg intragastric) was 0 and the “Grade IV seizure rate” value ([2]; BD-6 50 mg/kg intragastric) was 60%. For the same molecule, the mortality rate ([2]; BD-6 50 mg/kg intragastric) was 0%, the “Cases of Grade IV” value ([2]; BD-6 50 mg/kg intragastric) was 6 and the “Grade III seizure incubation period” value ([2]; BD-6 50 mg/kg intragastric) was 74±5^∗∗ s. For the same molecule, the “Grade IV seizure incubation period” value ([2]; BD-6 50 mg/kg intragastric) was 440 ± 128 s, the Cases of deaths ([2]; BD-6 200 mg/kg intragastric) was 1 and the “Grade IV seizure rate” value ([2]; BD-6 200 mg/kg intragastric) was 90%. For the same molecule, the mortality rate ([2]; BD-6 200 mg/kg intragastric) was 10%, the “Cases of Grade IV” value ([2]; BD-6 200 mg/kg intragastric) was 9 and the “Grade III seizure incubation period” value ([2]; BD-6 200 mg/kg intragastric) was 69±6^∗ s. For the same molecule, the “Grade IV seizure incubation period” value ([2]; BD-6 200 mg/kg intragastric) was 201 ± 81 s, the “Number of coughs vs solvent control (in words)” value ([3]; BD-6 20 mg/kg and 50 mg/kg, P<0.05) was “significant improvement in the number of coughs” and the “Incubation period (cough)” value ([3]; BD-6 20 mg/kg oral) was 33.3±3.3^∗ s. The Number of coughs ([3]; BD-6 20 mg/kg oral) was 45.9±4.8^∗, the “Cough incubation period vs solvent control (in words)” value ([3]; BD-6 20 mg/kg, P<0.05) was “significant improvement effect in the incubation period” and the “Incubation period (cough)” value ([3]; BD-6 50 mg/kg oral) was 30.6 ± 2.5 s. For the same molecule, the Number of coughs ([3]; BD-6 50 mg/kg oral) was 49.8±3.8^∗, the Frequency of writhing ([4]; BD-6 50 mg/kg oral) was 31.1±3.7 times and the Writhing incubation period ([4]; BD-6 50 mg/kg oral) was 220.7 ± 22.2 s. For the same molecule, the Frequency of writhing ([4]; BD-6 200 mg/kg oral) was 18.6±2.7^∗∗ times, the Writhing incubation period ([4]; BD-6 200 mg/kg oral) was 193.2 ± 17.3 s and the “Times of writhing vs model group (in words)” value ([4]; BD-6 200 mg/kg, P<0.05) was “can significantly reduce the times of writhing in mice”.
